Measurements taken from publication PMC2739136.

Experiments:
Assay in all cases: pull-down
MBP-TraR A149E, P33905 = target: T1, MBP-TraR A149E, P33905
T1 chain: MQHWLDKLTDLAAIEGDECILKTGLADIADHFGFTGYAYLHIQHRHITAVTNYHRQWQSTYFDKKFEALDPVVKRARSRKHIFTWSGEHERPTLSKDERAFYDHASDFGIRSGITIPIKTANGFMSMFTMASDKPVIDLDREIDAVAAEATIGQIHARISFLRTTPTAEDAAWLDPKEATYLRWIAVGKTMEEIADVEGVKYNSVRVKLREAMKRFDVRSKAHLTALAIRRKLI

MBP-TraR A149V, P33905 = target: T2, MBP-TraR A149V, P33905
T2 chain: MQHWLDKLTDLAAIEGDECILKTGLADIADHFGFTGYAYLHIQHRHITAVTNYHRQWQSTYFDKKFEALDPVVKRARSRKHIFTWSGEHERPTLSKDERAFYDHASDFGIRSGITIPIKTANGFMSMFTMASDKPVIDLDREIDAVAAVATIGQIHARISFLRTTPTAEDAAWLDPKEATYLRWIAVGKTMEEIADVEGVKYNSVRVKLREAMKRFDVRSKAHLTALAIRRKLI

MBP-TraR A157E, P33905 = target: T3, MBP-TraR A157E, P33905
T3 chain: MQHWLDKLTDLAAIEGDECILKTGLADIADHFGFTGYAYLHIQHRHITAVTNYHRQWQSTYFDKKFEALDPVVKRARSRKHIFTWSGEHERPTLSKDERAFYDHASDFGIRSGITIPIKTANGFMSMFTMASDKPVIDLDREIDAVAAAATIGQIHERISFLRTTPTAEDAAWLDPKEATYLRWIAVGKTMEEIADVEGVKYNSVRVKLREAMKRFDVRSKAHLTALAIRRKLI

MBP-TraR A222D, P33905 = target: T4, MBP-TraR A222D, P33905
T4 chain: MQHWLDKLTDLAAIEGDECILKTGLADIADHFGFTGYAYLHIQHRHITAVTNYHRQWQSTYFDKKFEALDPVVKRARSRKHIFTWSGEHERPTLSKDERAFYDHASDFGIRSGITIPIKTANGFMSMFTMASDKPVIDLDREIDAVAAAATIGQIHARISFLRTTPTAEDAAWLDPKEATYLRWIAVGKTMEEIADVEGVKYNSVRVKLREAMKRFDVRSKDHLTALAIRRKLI

MBP-TraR G123R, P33905 = target: T5, MBP-TraR G123R, P33905
T5 chain: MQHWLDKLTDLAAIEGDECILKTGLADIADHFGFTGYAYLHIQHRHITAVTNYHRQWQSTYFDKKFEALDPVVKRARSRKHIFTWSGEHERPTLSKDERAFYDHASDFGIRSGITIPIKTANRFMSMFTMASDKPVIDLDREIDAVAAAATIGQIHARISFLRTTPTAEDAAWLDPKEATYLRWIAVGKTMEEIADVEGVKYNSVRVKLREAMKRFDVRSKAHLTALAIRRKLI

MBP-TraR L5M, P33905 = target: T6, MBP-TraR L5M, P33905
T6 chain: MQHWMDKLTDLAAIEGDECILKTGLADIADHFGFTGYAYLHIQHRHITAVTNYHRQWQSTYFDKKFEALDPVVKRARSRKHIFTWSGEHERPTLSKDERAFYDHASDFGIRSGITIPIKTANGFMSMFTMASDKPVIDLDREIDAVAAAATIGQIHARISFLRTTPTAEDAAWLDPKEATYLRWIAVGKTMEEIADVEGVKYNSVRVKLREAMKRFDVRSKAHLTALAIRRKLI

MBP-TraR S160A, P33905 = target: T7, MBP-TraR S160A, P33905
T7 chain: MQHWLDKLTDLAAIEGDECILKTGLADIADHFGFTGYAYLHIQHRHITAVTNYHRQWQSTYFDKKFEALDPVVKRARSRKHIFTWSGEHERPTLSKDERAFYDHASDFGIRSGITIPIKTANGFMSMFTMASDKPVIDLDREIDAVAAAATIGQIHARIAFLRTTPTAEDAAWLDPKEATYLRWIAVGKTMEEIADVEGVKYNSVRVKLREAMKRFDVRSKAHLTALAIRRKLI

MBP-TraR T225S, P33905 = target: T8, MBP-TraR T225S, P33905
T8 chain: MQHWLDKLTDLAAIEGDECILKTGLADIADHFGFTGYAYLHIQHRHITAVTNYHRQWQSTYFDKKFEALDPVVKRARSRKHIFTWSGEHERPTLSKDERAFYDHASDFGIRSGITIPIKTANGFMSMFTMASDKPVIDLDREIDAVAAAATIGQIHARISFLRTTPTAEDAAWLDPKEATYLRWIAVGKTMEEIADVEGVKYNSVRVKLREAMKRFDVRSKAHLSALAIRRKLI

B1: native TraR (wild type) (protein)
chain: MQHWLDKLTDLAAIEGDECILKTGLADIADHFGFTGYAYLHIQHRHITAVTNYHRQWQSTYFDKKFEALDPVVKRARSRKHIFTWSGEHERPTLSKDERAFYDHASDFGIRSGITIPIKTANGFMSMFTMASDKPVIDLDREIDAVAAAATIGQIHARISFLRTTPTAEDAAWLDPKEATYLRWIAVGKTMEEIADVEGVKYNSVRVKLREAMKRFDVRSKAHLTALAIRRKLI
heterodimer formation (% of wild type) (% of wild type) (MBP-TraR A149E, P33905): 12 | heterodimer formation (% of wild type) (% of wild type) (MBP-TraR A149V, P33905): 19 | heterodimer formation (% of wild type) (% of wild type) (MBP-TraR A157E, P33905): 48 | heterodimer formation (% of wild type) (% of wild type) (MBP-TraR A222D, P33905): 29 | heterodimer formation (% of wild type) (% of wild type) (MBP-TraR G123R, P33905): 49 | heterodimer formation (% of wild type) (% of wild type) (MBP-TraR L5M, P33905): 99 | heterodimer formation (% of wild type) (% of wild type) (MBP-TraR S160A, P33905): 100 | heterodimer formation (% of wild type) (% of wild type) (MBP-TraR T225S, P33905): 43
